Test [1] has as its target T1, eEF2 kinase (Homo sapiens, UniProt O00418).
T1 construct: made in house; host or cells: E. coli
Briefly: HTS screen for eEF2 kinase inhibitors (ATP depletion coupled to luciferase luminescence, eEF2p substrate). Type of test: biochemical.

Another test deals with eEF2K (Homo sapiens, UniProt O00418). Nature of the test: eEF2K activity in vitro. Format: biochemical.
For test [2], the target named is T1, eEF2 kinase. Briefly: Peptide substrate phosphorylation by eEF2 kinase. Type of test: biochemical. The text has this: While alpha-kinase phosphorylation sites are typically found within alpha-helicies of peptide substrates, it was unknown for eEF2K if alpha-kinases recognized target substrates based on a specific primary peptide sequence around the phosphorylation site of eEF2K, or whether the alpha-helical secondary structure is responsible for the phosphorylation by alpha-kinases. To clarify this an arrayed peptide library screen was used (Turk, Yale Med. Sch. Dept. Pharmacol.) that thoroughly evaluated for specific kinase preference all 20 amino acids at each of nine positions neighboring the phosphorylation site.
Every peptide comprising this library contained a central fixed phosphorylation site where equimolar quantities of threonine and serine were introduced; each peptide also contained a carboxy-terminal biotin label. […]
Reactions in this screen were run for a given incubation time and then spotted simultaneously on a streptavidin membrane through use of a high throughput capillary-based liquid transfer device. Submersion of the membrane in a specified quenching solution stripped away unincorporated ATP and then radiolabeled-ATP incorporation was measured using a phosphoimager. […]

Test [3] relates to Arc protein in DIV14 forebrain neurons. Nature of the test: Western blot of Arc protein in cultured forebrain neurons. Type of test: cell-based, mouse. The settings on record: BDNF 10 ng/ml. How it is done:
For biochemistry experiments, 0.4×10^6 neurons were added to each well of a 6-well plate (Coming) coated with poly-L-lysine. Growth medium consisted of NeuroBasal (Invitrogen) supplemented with 1% fetal bovine serum (Hyclone), 2% B27, 1% Glutamax (Invitrogen), 100 U/mL penicillin, and 100 U/mL streptomycin (Invitrogen). Neurons were fed twice per week with glia conditioned growth medium.
Transfected HEK293T cells or cultured neurons were treated with various drugs and then harvested in IP buffer supplemented with 1% Triton X-100 buffer and Complete™ EDTA-Free protease inhibitors. Soluble fractions were diluted with 4× SDS sample buffer.
The membrane was blocked with TBST (50 mM Tris, pH 7.5, with 150 mM NaCl, and 0.1% Tween-20) containing 5% non-fat milk for one hour at room temperature, followed by incubation with primary antibody in TBST buffer overnight at 4° C. After three washes with TBST buffer, membranes were incubated with HRP-conjugated anti-rabbit, or anti-mouse antibody in TBST for another hour. After three washes with TBST buffer, the membrane was treated with SuperSignal ECL substrate (Pierce) according to the manufacturer's protocol.
To reduce the background signal in the co-IP assay, HRP-conjugated HA or HPR conjugated myc antibody (Santa Cruz) was used when overexpressed proteins were tagged with HA or myc. […] Image J software (NIH) was used for quantification.
Background: In western blotting, separated proteins are transferred to a membrane and probed.

Test [4] has as its system Arc mRNA in cultured neurons. Briefly: Real-time RT-PCR of Arc mRNA. Type of test: cell-based. The settings on record: BDNF 10 ng/ml at 40 min; forskolin 50 μM at 20 min; DHPG at 20 and 40 min after stimulation. How it is done: RNA samples from neuronal cultures were prepared using the PARIS kit (Ambion) according to the manufacturer's protocol. Following RNA extraction, samples were treated with DNase to remove contaminating DNA prior to cDNA synthesis. Total RNA was reverse transcribed using the SuperScript II First Strand Synthesis System for RT-PCR (Invitrogen) according to the manufacturer's protocol. A negative control without reverse transcriptase was included.
Primer specificity was verified by melt curve analysis. PCR amplification of cDNA was performed using the BioRad iCycler Real-Time Detection System (BioRad Laboratories). cDNA (1 μl) was added to 24 μl of 1× reaction master mix (3 mM MgCl2, KCl, Tris-HCl, iTaq DNA polymerase, 25 units/ml SYBR Green 1, 0.2 mM each dNTPs, 10 nM fluorescein and 500 nM each gene specific primers). […]
GAPDH was used to normalize data. The threshold for detection of PCR product above background was set at 10× the standard deviation of the mean background fluorescence for all reactions. Background fluorescence was determined from cycles 1-5 prior to the exponential amplification of product and subtracted from the raw fluorescence of each reaction/cycle. […] Threshold cycle (CT; number of cycles to reach threshold of detection) was determined for each reaction.
Relative gene expression was determined using the 2^−ΔΔCT method (Livak, et al., Methods 25, 402-408 (2001)). […]
In general terms: Real-time PCR tracks product formation cycle by cycle.

Entries after “also recorded” stand apart in the source; their conditions may differ. Like-named read-outs stand apart in the source and are kept apart here. Where no end group is shown, it is not given here.

Turning to `CCCCCCCCCCCCCCCCN1C=CN(c2ccccc2)C1` [L-207], the “identified as inhibitor for eEF2 kinase” value on eEF2 kinase [1] is given as “inhibitors for eEF2 kinase”.

For `CCCCCCCCCCCCC/C=C/[C@@H](O)[C@@H](N)COP(=O)(O)O` [Sphingosine-1-phosphate, sphingosine-1-phosphate], the “inhibition of eEF2K activity in vitro” value is given as “inhibit eEF2K activity” against eEF2K and “inhibitor of eEF2 kinase” against eEF2K (listed as sphingosine-1-phosphate).

Take Ac-RKKYKFNEDTERRRFL [eEF2p]: the “efficiency as substrate compared with the MH-U peptide” value with eEF2 kinase [2] was “two orders of magnitude more efficient”.

B1: BDNF: BDNF, applied at 10 ng/ml to neurons (protein, UniProt P23560 19-247, looked up)
Neurotrophic factor BDNF …: APMKEANIRGQGGLAYPGVRTHGTLESVNGPKAGSRGLTSLADTFEHVIEELLDEDQKVRPNEENNKDADLYTSRVMLSSQVPLEPPLLFLLEEYKNYLDAANMSMRVRRHSDPARRGELSVCDSISEWVTAADKKTAVDMSGGTVTVLEKVPVSKGQLKQYFYETKCNPMGYTKEGCRGIDKRHWNSQCRTTQSYVRALTMDSKKRIGWRFIRIDTSCVCTLTIKRGR
On to B1, for which the figures for the “level of Arc protein after BDNF” value in test [3] (40 min after treatment) and in test [3] (after 5 min) were “increased Arc protein expression; also recorded: increased the level of Arc protein” and “no change”, respectively. In addition, in test [4], the “level of Arc mRNA” value is listed as “induced the level of Arc mRNA”.

Source of the values: patent US20110183942A1, “Methods and Compositions for Treating Alzheimer's Disease” (UNIVERSITY OF MEDICINE AND DENTISTRY OF NEW JERSEY, priority 2008, published 2011).
